Laboratory results from patent US20200291444A1, “Macrocyclisation Tags” (Oxford University Innovation LTD, priority 2017, published 2020).
Changes are numbered by the printed parent chain. Names may count otherwise.

Legend:
[1] = test system: CC[C@H](C)[C@H](N)C(=O)N[C@@H](Cc1c[nH]c2ccccc12)C(=O)NCC(=O)N[C@H](C(=O)NCC(=O)N[C@@H](CS)C(=O)N[C@@H](CC(N)=O)C(=O)N1CCC[C@H]1C(=O)N[C@@H](Cc1c[nH]c2ccccc12)C(=O)N[C@H](C(=O)N[C@@H](C)C(=O)N[C@@H](CCC(=O)O)C(=O)N[C@@H](Cc1c[nH]cn1)C(=O)N[C@H](C(=O)N[C@@H](CC(=O)O)C(=O)N[C@@H](CCC(N)=O)C(=O)N[C@H](C(=O)N[C@@H](CC(C)C)C(=O)N[C@@H](C)C(=O)N[C@@H](CO)C(=O)NCC(=O)N[C@@H](CC(N)=O)C(=O)N[C@@H](CC(=O)O)C(=O)N[C@H](C(=O)N[C@@H](CS)C(=O)O)[C@@H](C)CC)[C@@H](C)O)C(C)C)[C@@H](C)O)[C@@H](C)CC; assay: GmPOPB kinetic assays (LC-MS); format: biochemical, Galerina marginata; settings: other: room temperature; pH 8.0
Protocol: (§1) Comparison between distinct GmPOPB substrates was performed in 50 mM Tris pH 8.0, 50 mM NaCl, 10 mM DTT with varying concentrations of substrates at room temperature. All reactions were performed in duplicates. Reactions were started by adding GmPOPB (50 nM for GmAMA1_C6S, 1 μM for the 13mer and 14mer, and 20 nM for other substrates) to the assay mixture containing buffer and peptide. Reactions were quenched at several time points by adding 50 μL reaction mixture to 20 μL 6% TFA. Reactants were separated from products for quantification by injecting 50 μL of each quenched time point mix onto a ZORBAX SB-C18, 5 μm, 9.4×50 mm (Agilent) column connected to an Agilent LC-MS (G6130B Single Quad, Agilent Technologies). Reactants were separated from products using a gradient from H2O containing 0.1% TFA or 0.1% formic acid and 5% acetonitrile to 50% acetonitrile, at 1.5 ml/min for 8 min. Peaks with ultra violet (UV) absorbance at 220 and 280 nm were integrated, the area of peaks corresponding to reactant and products was used to calculate the percentage of product formed after a correction for differences in the extinction coefficient of each peptide was applied (ε280-25mer=11,000M-1 cm-1, ε220-25mer=46,000M-1 cm-1, ε280-cyclic=5500M-1 cm-1, ε220-cyclic=34,000M-1 cm-1, and ε280-tail=5500M-1 cm-1). The sum of product+substrate was assumed equal to the total initial amount of substrate, product converted from % to concentration. This value was divided by concentration of enzyme present to yield v/Et (min-1). When enzyme mutants and peptides containing alanine in the core region were tested for activity, higher concentrations 5 μM enzyme and 100 μM substrate were incubated for 1 and 18 h at room temperature. For progress curves with the 35mer substrate, measurements were triplicate and quantification relied on ion counts from mass spectrometry. […] Authentic macrocyclic peptide was quantified by UV absorbance. Data showing products formed after 1 and 16 h with truncated peptides were performed twice. […] Kinetic data were fitted to a Michaelis-Menten equation using GraphPad Prism, and values reported are average and standard error of the mean.

presegetalin B1 = biological target: T1, presegetalin B1
T1 chain: GVAWAFQAKDVENASAPV

[2] = test system: 25mer and 35mer substrates; assay: Activity of GmPOPB mutants with 25mer and 35mer substrates; format: biochemical, Galerina marginata; settings: 5 μM GmPOPB, 24 h (16 h elsewhere in the source)
Protocol: as §1, with “Reactions were started by adding GmPOPB (50 nM for GmAMA1_C6S, 1 μM for the 13mer and 14mer, and 20 nM for other substrates) to the assay mixture containing buffer and peptide.” left out, “When enzyme mutants and peptides containing alanine in the core region were tested for activity, higher concentrations 5 μM enzyme and 100 μM substrate were incubated for 1 and 18 h at room temperature.” left out, “mean. […]” for “mean.”
To study other residues involved in hydrolysis and macrocyclisation, additional mutants H698N, R663A, R663Q, R663K, and W695Δ (deletion) were generated. […] H698N was insoluble and not evaluated. […]

Molecule GmPOPB (Galerina marginata CBS 339.88) has a Km [1] of 50 µM and a kcat [1] of 0.3 s⁻¹.

B1: PCY1 (Saponaria vaccaria), wild type (protein)
chain: MATSGFSKPLHYPPVRRDETVVDDYFGVKVADPYRWLEDPNSEETKEFVDNQEKLANSVLEECELIDKFKQKIIDFVNFPRCGVPFRRANKYFHFYNSGLQAQNVFQMQDDLDGKPEVLYDPNLREGGRSGLSLYSVSEDAKYFAFGIHSGLTEWVTIKILKTEDRSYLPDTLEWVKFSPAIWTHDNKGFFYCPYPPLKEGEDHMTRSAVNQEARYHFLGTDQSEDILLWRDLENPAHHLKCQITDDGKYFLLYILDGCDDANKVYCLDLTKLPNGLESFRGREDSAPFMKLIDSFDASYTAIANDGSVFTFQTNKDAPRKKLVRVDLNNPSVWTDLVPESKKDLLESAHAVNENQLILRYLSDVKHVLEIRDLESGALQHRLPIDIGSVDGITARRRDSVVFFKFTSILTPGIVYQCDLKNDPTQLKIFRESVVPDFDRSEFEVKQVFVPSKDGTKIPIFIAARKGISLDGSHPCEMHGYGGFGINMMPTFSASRIVFLKHLGGVFCLANIRGGGEYGEEWHKAGFRDKKQNVFDDFISAAEYLISSGYTKARRVAIEGGSNGGLLVAACINQRPDLFGCAEANCGVMDMLRFHKFTLGYLWTGDYGCSDKEEEFKWLIKYSPIHNVRRPWEQPGNEETQYPATMILTADHDDRVVPLHSFKLLATMQHVLCTSLEDSPQKNPIIARIQRKAAHYGRATMTQIAEVADRYGFMAKALEAPWID
B1 was tested, and the Km (column head printed as 'Kin (µM)'), single injection kinetic ITC (presegetalin B1) was 0.25 µM and the Km (column head printed as 'Kin (µM)'), steady-state kinetics, LC/MS (UV280 nM) (presegetalin B1) was 0.45 µM.

B2: S577A: GmPOPB catalytic triad mutant (protein)
chain: MSSVTWAPGNYPSTRRSDHVDTYQSASKGEVPVPDPYQWLEESTDEVDKWTTAQADLAQSYLDQNADIQKLAEKFRASRNYAKFSAPTLLDDGHWYWFYNRGLQSQSVLYRSKEPALPDFSKGDDNVGDVFFDPNVLAADGSAGMVLCKFSPDGKFFAYAVSHLGGDYSTIYVRSTSSPLSQASVAQGVDGRLSDEVKWFKFSTIIWTKDSKGFLYQRYPARERHEGTRSDRNAMMCYHKVGTTQEEDIIVYQDNEHPEWIYGADTSEDGKYLYLYQFKDTSKKNLLWVAELDEDGVKSGIHWRKVVNEYAADYNIITNHGSLVYIKTNLNAPQYKVITIDLSKDEPEIRDFIPEEKDAKLAQVNCANEEYFVAIYKRNVKDEIYLYSKAGVQLTRLAPDFVGAASIANRQKQTHFFLTLSGFNTPGTIARYDFTAPETQRFSILRTTKVNELDPDDFESTQVWYESKDGTKIPMFIVRHKSTKFDGTAAAIQYGYGGFATSADPFFSPIILTFLQTYGAIFAVPSIRGGGEFGEEWHKGGRRETKVNTFDDFIAAAQFLVKNKYAAPGKVAINGAANGGLLVMGSIVRAPEGTFGAAVPEGGVADLLKFHKFTGGQAWISEYGNPSIPEEFDYIYPLSPVHNVRTDKVMPATLITVNIGDGRVVPMHSFKFIATLQHNVPQNPHPLLIKIDKSWLGHGMGKPTDKNVKDAADKWGFIARALGLELKTVE
With B2 the “activity of GmPOPB mutant (in words)” value [2] was “inactive”.

B3: D661A: GmPOPB catalytic triad mutant (protein, UniProt H2E7Q8 1-730, looked up, variant D661A)
Dual function …: B2 chain with A577S, D661A
In the case of B3, the “activity of GmPOPB mutant (in words)” value [2] is reported as “inactive”.

B4: H698A: GmPOPB catalytic triad mutant (protein, UniProt H2E7Q8 1-730, looked up, variant H698A)
Dual function …: B2 chain with A577S, H698A
For B4, the “activity of GmPOPB mutant (in words)” value [2] was “inactive”.
